From article PMC12581312, “Lung endothelial PEAR1 induces tumor cell dormancy” (Molecular Cancer, 2025)

Biological target: T1, Human recombinant LOXL2 (lysyl oxidase like 2) (human, UniProt Q9Y4K0 26-774)
T1 construct: lysyl oxidase like 2 (LOXL2), human, recombinant; source: bought: R&D Systems (catalog #2639-AO-010)
T1 sequence (looked up): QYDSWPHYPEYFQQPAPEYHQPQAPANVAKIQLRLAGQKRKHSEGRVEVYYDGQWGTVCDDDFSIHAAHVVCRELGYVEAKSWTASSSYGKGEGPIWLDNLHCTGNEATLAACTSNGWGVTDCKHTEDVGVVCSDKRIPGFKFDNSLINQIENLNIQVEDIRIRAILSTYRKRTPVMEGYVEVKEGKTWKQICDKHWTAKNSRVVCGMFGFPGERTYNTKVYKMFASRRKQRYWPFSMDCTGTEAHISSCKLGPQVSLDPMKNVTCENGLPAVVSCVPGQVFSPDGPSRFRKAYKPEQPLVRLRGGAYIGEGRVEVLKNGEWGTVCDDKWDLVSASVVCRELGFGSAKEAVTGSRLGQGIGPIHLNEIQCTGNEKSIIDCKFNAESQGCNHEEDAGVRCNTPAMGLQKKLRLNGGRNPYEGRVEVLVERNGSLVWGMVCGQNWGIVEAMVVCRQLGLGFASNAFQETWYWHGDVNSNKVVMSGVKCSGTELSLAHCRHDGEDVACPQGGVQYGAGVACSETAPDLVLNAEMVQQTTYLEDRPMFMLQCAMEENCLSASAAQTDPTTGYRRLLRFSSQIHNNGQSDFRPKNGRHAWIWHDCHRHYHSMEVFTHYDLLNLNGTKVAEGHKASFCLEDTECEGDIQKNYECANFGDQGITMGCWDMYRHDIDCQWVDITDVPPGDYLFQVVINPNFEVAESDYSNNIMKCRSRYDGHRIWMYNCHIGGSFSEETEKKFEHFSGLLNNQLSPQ
Experiment: pull-down; recombinant human PEAR1 (100 nM) immobilised on Ni-NTA magnetic beads, incubated with 100 nM recombinant human CTSD, SEMA6D or LOXL2 in 50 mM NaH2PO4, 300 mM NaCl, 20 mM imidazole, pH 8.0, 1 h at room temperature; control Ni-NTA beads; immunoblotting
Settings: both partners purified

B1: Human recombinant PEAR1 extracellular part (platelet and endothelial aggregation receptor 1), His-tagged (domain or fragment, UniProt Q5VY43 21-755, looked up)
chain: LNPSDPNTCSFWESFTTTTKESHSRPFSLLPSEPCERPWEGPHTCPQPTVVYRTVYRQVVKTDHRQRLQCCHGFYESRGFCVPLCAQECVHGRCVAPNQCQCVPGWRGDDCSSECAPGMWGPQCDKPCSCGNNSSCDPKSGVCSCPSGLQPPNCLQPCTPGYYGPACQFRCQCHGAPCDPQTGACFCPAERTGPSCDVSCSQGTSGFFCPSTHSCQNGGVFQTPQGSCSCPPGWMGTICSLPCPEGFHGPNCSQECRCHNGGLCDRFTGQCRCAPGYTGDRCREECPVGRFGQDCAETCDCAPDARCFPANGACLCEHGFTGDRCTDRLCPDGFYGLSCQAPCTCDREHSLSCHPMNGECSCLPGWAGLHCNESCPQDTHGPGCQEHCLCLHGGVCQATSGLCQCAPGYTGPHCASLCPPDTYGVNCSARCSCENAIACSPIDGECVCKEGWQRGNCSVPCPPGTWGFSCNASCQCAHEAVCSPQTGACTCTPGWHGAHCQLPCPKGQFGEGCASRCDCDHSDGCDPVHGRCQCQAGWMGARCHLSCPEGLWGVNCSNTCTCKNGGTCLPENGNCVCAPGFRGPSCQRSCQPGRYGKRCVPCKCANHSFCHPSNGTCYCLAGWTGPDCSQPCPPGHWGENCAQTCQCHHGGTCHPQDGSCICPLGWTGHHCLEGCPLGTFGANCSQPCQCGPGEKCHPETGACVCPPGHSGAPCRIGIQEPFTVMPTTPVAYNSL
notes: platelet and endothelial aggregation receptor 1 (PEAR1), human, extracellular part; Held on Ni-NTA magnetic agarose beads by its His tag in the pull-downs; also called rhPEAR1; PEAR1 agarose; source: bought: R&D Systems (catalog #4527-PR-050)
Q: Does B1 bind?
A: binds
